Target: T1, GST–HCF-1-C (GST fusion of the C-terminal half of human HCF-1, 1012–2036) (human, UniProt P51610 1012-2035)
T1 construct: HCF-1 (host cell factor C1), human, C-terminal half, residues 1012-2036 as printed; the printed end 2036 may count the stop codon; also called pGEX4T-1-hHCF-1-C; source: E. coli BL21(DE3), purified from soluble lysates
T1 sequence (looked up): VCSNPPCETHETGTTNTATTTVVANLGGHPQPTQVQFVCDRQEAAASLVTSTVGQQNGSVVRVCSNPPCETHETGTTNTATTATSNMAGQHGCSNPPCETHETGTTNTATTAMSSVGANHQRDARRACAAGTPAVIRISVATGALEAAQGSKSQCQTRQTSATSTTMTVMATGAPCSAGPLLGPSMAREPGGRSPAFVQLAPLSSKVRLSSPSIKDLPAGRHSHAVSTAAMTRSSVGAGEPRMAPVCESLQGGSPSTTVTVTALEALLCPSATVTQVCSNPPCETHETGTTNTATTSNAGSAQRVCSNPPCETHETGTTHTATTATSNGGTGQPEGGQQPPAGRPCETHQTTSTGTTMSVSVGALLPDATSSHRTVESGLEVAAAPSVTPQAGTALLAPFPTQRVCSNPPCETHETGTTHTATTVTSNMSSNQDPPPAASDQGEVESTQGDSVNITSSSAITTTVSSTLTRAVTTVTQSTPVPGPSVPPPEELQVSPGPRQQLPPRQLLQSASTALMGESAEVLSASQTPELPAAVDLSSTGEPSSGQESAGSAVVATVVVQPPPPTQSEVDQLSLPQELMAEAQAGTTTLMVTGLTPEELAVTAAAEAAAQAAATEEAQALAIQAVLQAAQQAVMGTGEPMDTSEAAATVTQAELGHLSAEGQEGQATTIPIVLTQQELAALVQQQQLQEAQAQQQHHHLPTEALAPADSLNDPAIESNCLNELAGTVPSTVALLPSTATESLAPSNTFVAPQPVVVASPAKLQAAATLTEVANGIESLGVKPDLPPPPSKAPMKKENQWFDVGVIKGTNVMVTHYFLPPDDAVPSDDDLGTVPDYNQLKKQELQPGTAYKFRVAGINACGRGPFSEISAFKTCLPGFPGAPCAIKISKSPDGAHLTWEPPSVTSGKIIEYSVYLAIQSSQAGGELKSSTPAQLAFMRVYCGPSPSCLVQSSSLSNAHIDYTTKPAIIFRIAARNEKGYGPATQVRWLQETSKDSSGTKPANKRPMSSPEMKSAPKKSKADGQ
Assay: pull-down; glutathione-Sepharose-immobilized GST-OGT and GST–HCF-1-C incubated with recombinant His6-tagged NRF1 fragments Fr. 1 and Fr. 2; washed extensively with PBS-T; immunoblot with anti-His6 and anti-GST
Conditions: both partners purified

binding result: binds
B1: mNRF1-Neh6L-His6 (Fr. 2; 431–580) (domain or fragment, mouse, UniProt Q61985 431-580, looked up)
chain: GFNPVQASQLEEEFDSDSGLSLDSSHSPSSLSSSEGSSSSSSSSSSSSASSSASSSFSEEGAVGYSSDSETLDLEEAEGAVGYQPEYSKFCRMSYQDPSQLSCLPYLEHVGHNHTYNMAPSALDSADLPPPSTLKKGSKEKQADFLDKQM
notes: NRF1, mouse, Neh6L domain, residues 431-580; The name is printed both as NRF1-Neh6L-His6 and as His6-NRF1-Neh6L; also called His6-NRF1-Neh6L; fragment 2; source: E. coli BL21(DE3), purified (Ni-NTA agarose)
